{"source": "the DeepSol protein solubility set"}
{"assay": "soluble on expression in E. coli; label from the status in PepcDB or PDB records"}
{"sequence": "MSLSYRIDGLQYANWSEKIFRQLRAGNVDAVHVTIAYHESFRETVLNFEKWNRWFEQYPDLIMKGQWASDIDTARETGRTAIFFGFQNPSPIEDDIGLVEILHTLGARFMQLTYNNQSLLATGCYEAEDAGITRMGRQVIKEMNRVGLVVDMSHSADRSTIEAVEISERPIAITHANPHDWAPALRNKRDDVIRAVTENGGMLGFSVYPHHLKDKSDCTLDSFCEMIARTAERYGVDHLGIGTDLCQDQPDSVVEWMRTGRWSKEIDFGEGSASAPGFPPMPHWFEDNRDFGNIENGLRATGLNKDEVAGIMGGNWYRFFAQNFVPQGEGHHHHHH", "soluble on expression in E. coli": "soluble"}
{"sequence": "MSLTALSALIEQKLQSLGTILCQSFPELSPEKIHEAIQQNSNHPELPVYQLGYAIAMSDFVEKVLQKYPHLVKQWWEKSPCFADCTAYIERLNKELANVHDETALYQTLRQFRNIEMAKLSFCQSLNLATVEEIFVQLSQLAESLIIAARDWLYHQACAEIGTPMDEQGNPQQLYILGMGKLGGFELNFSSDIDLIFTYPSQGETSVENTNARRSVDNGKFFTRLGQRLISALDEFTSDGFVYRTDMRLRPFGDSGVLVLSFSAMEQYYQDQGRDWERYAMIKGRVLGAQTKDPNVSKLKKMLRPFVYRRYIDFSVIQSLREMKGKIEREVRRRGLKDNIKLGAGGIREVEFIVQVFQLIRGGREINLQQHSLLKILPEITKLRLITEQQFHDLRESYIFLRRVENILQAINDQQTQTLPTDEIDQIRLVEACKTFTCLNENNQTIEKHYPIENWDDFYRTLQQKQEKVRAVFTQLIGDEQDESSQTDSQWQDFLEADFEDIEQTLLESSVSENNIDEVLEKLAQFKDGLNHRVIGSRGRDVLSHLMPTVLALIFEQENYRTLLPRILNIIEKISSRTTYLELLLENPRALQQVIELCAQSQLISEQLAHYPILLDELLNTEALRHPLPFTQYPAELHQYLLRLPPDDEEQLIDALRQFKQATLLKVAAADILGALPVMKVSDHLTYLAEAIIEVVVNLAWKQVSSRFGVPEHLQNNEKGFLVIGYGKLGGIELGYKSDLDLVFLYDAVESQTTGGKKVIDSNQFYLRLAQKIVSIFSINTSAGVLYEADMRLRPSGDAGLIGCSLSAFSHYQLNDAWTWEKQALVRARPVFGESSLKAKFEHIRQQVLSASRDIEQLKQDVVEMRKKMFAHLSHSKHSEFNLKTDRGGITDIEFIAQYLMLANAPKKPQLTKWSDNVRIFDDMAEAKIISQTDCDTLKQCYVDLRNTIHHLNLLGKSSVVEDSEFVKERSFIQAFWDRLFVSEGHHHHHH", "soluble on expression in E. coli": "soluble"}
{"sequence": "MSLTDLIVTNGAVLTMDPARPEAEAVAVADGRITAVGSRAEIERLAGPRTDMIDAGGGTVLPGFVESHLHLVLGGAELAHLQLAGVHGVEALTRAAQSFAAAHPDRPLLMAQGGDYGLLDRPMTRQDLDAILPDRPFAITAPDHHTVWANTAALRAAGLIEGASMPHGHEVVMGADGRATGELREFEAFAPVIALGGEARLNLGIATGEEPSPWPDAAERAIDRAKIARGLAHCAAHGITSMVNMDGNRYTLELLRELQRAGGLTARIRVPFHFKPHMALADLARAEAMTRDFDDDWLACNFVKMFMDGVLDSGTAYRLDDYPDAPGWRSEPLFEPARFAEIATAVDRRGLQIAVHAIGCGAVRTTLDGYAAARAANGARDSRHRIEHIELIDRADIPRLAALGVVASLQPPHPPGAMDFPLQPTLDRIGRSRWPDAYLCRTLAEAGAPVVFASDWPVTDVSVLRGLQAALTRRPYEGAADERLTLAESLRAYTAGGAWANHRERLTGTLRAGLAADLAILDGRLEARAADSLGSLGVARTLCGGRTTHRREGHHHHHH", "soluble on expression in E. coli": "not soluble"}
{"sequence": "MSLTDLTKANEWLKDADAVIVTAGNGMAKEEGLDILSEENFDNQFGEIAEKYDVHTIGDALDKEFDSWEEKWTFWSKLINEYSLQYEKSENMKALEKLLEDKEYFIATSTFAHFFENAGFNENRIFDAFGDWTKMQCSSGINHGQKDNREVVKQFLQGKGELPKCEDCGSPMELHMPLNAHFFPDTDANTRFRWFLTGNEEKNVVVLELGVDATSPQLLDPMVNLVQQFSNWHYIAADLANDNLPDDLKKRAIGFGSDTHETLMNLTKEGHHHHHH", "soluble on expression in E. coli": "soluble"}
{"sequence": "MSLTDNKTVPNGAPILYIVPTPIGNLGDITQRALDVLASVDMIAVEDTRHTGKLLAHFNISTKTFALHDHNEQQKAQVLVDKLLSGLSIALVSDAGTPLISDPGYHLVTQCRQAGVKVVPLPGPCAVITALSASGLPSDSFSFEGFLPAKSKARKDKLLEIAKVSRTCIFYESPHRICESLQDMLDVLGGEREVVLARELTKTFETIQGMPLAELITWIAEDDNRKKGEMVLLVHGYRDAGEQQLPDEALRTLTILTKELPLKKAAALVAEIHQLKKNALYKWGLENLGEEGHHHHHH", "soluble on expression in E. coli": "soluble"}
{"sequence": "MSLTEHALSNARIVLEDDIILGSVLIRDGKIADISEGASKTGEDLEGDFLIPGLVELHTDHLEQHYSPRPGVIWDKIAAIQAHDAQVASSGITTVFDCLRLGSDEDGGFKKGEMREMADAIEAAADQNRLRADHLLHLRCEVASADVLEHFEDFETDPRVRLISLMDHSPGQRQFQSMDQYIFYYQKKRGLSDEAFAEFVRRRQAASAEYSAKHRDYLAASCAKRGITVASHDDATEAHVGEAIGHGVKLAEFPTSVEAAKASHSAGMSVLMGAPNIVRGKSHSGNIAARDLAEIGVLDVLSSDYVPFSLLFAPFLLADQVEAISLSEALRMVTATPARTVGLVDRGRIATGLRADLVRVHREDGVPVARSVWRQGKRVAEGHHHHHH", "soluble on expression in E. coli": "not soluble"}
{"sequence": "MSLTHGDVMLLATSFAPGSSNIIYQVIDELVNYFKKFLFTVNYDSELTTIADCFDLLNIPKDHPSRNLTDTFYLDKNRLLRTHCTAATLRAVKETKKSNNPDIRIASFGAVFRKDDDDATHSHQFNQLDFMWIKKDFSLTNLKWFMQNMINHIFGENTSARFRLSHFPFTEPSFEIDIRCWLCQNGCGVCKKTRWIEVLGAGILHPQVMANMGFSDTDNIRGIAAGIGIERLVMLKHGISDIRDLYDNNFKFLAQFTEGHHHHHH", "soluble on expression in E. coli": "not soluble"}
{"sequence": "MSLTKFHGVFPPVPTIVNAQGELDKVGMATLLDHLIASKVNGVLLLGSGGEFCHMTNALRLETAEFCVRHINRRIPVLLGISSTSTQEVIEYGQHADRLEVDAVLVLNPYYARLTDEYIYHHFKTVANNIKSPVILYNFPALTGQDLSVDLITRLAQDHPNIIGIKDTVDNISHIREIINNVRPVRPDFVIFSGYDEYMMDTLILGGNGGIPATANFAPQLTCGIYRAWCEKEYETMFGLQRRLSALSTIYSLDSPFFGIIKKAIQLSGVDISTHVMPPVLPANEEHISNLKQILQRAGLEGHHHHHH", "soluble on expression in E. coli": "soluble"}
{"sequence": "MSLTLDVWQHIRQEAKELAENEPMLASFFHSTILKHQNLGGALSYLLANKLANPIMPAISLREIIEEAYQSNPSIIDCAACDIQAVRHRDPAVELWSTPLLYLKGFHAIQSYRITHYLWNQNRKSLALYLQNQISVAFDVDIHPAAKIGHGIMFDHATGIVVGETSVIENDVSILQGVTLGGTGKESGDRHPKVREGVMIGAGAKILGNIEVGKYAKIGANSVVLNPVPEYATAAGVPARIVSQDKAAKPAFDMNQYFIGIDDGMNLNEGGSHHHHHH", "soluble on expression in E. coli": "soluble"}
{"sequence": "MSLTLQQKELFQKSPLLLENGETLSPVLVGYETYGTLSASRDNCILLEHALTGTAHAAKHFEDDAPGWWDDYIGPGKTIDTDKYFLVCTNVFGGCSGTTGPSSINPKTGEPFRLQFPGFSIKDIIKVQRELLEQLGVTRIVSVIGGSMGGMQATEWAIDYADITDSIINIASPLAAGPDAIGYNLIMRMAILNDPDFNGGNYVGQPEGGLATARMVGMMTYRTSELFSKRFERFTVAESSPAAFSKEHFQIESYLQYQGDTFVERFDANSYLYLTKAIDLFDVTAPAKDDLPAFSKIKIPYLLIGITTDQLFRIHDLRRGYELLKEWDVPVTYHEVASEYGHDAFLVEKEVPKFEPLIRSFLSNLPVKSIEGHHHHHH", "soluble on expression in E. coli": "soluble"}
{"sequence": "MSLTNTTKIVFLGASSASFGLSMFRDLFASPVLAGSTLTLVGRNPETLGRMTELAKLMNARSGAGLIIEQTTDRRAALDGAGFVINATAIDRNRLWKQDFEVPKKHGIRHTLGENGGPGGLFFTLRTLPLVFDFIRDIEELCPTALFLNYSNPESRIILALGRYTKVRHIGLCHGIFMGRDAVAYIMQMPREEIEVWGAGLNHFQCLTEIRHRDTGEDLYPRFRAAEQSFDPDAWRFTRRLYRAFGYWLTCSDDHLGEYLPYGWEAGEKGYDFDQDERWRGEFLTQLNGVLGGTMPIPQWWTEPSGERGAAVIAAMLHNQKRFIESGIVINRGVIPNLPAELAVEVPVTVDAAGVHPVSLGPLPDPIAKLMLMQASVQQLAVEAAVHASKELALQALLIDPVVNSAVAAEKILDELWEINRPYIRKEGHHHHHH", "soluble on expression in E. coli": "not soluble"}
{"sequence": "MSLTPDPAIDEVTARVYQIPTDAPEADGTLSWSSTTLVLAEVAAGGRRGIGYTYGDGACAQLITGALAGSVTGHSALDVAARWQAMVRAMRNNGRPGLVSCAISAVDTALWDLKGKLLGLPVCRLLGMAHDSVPIYGSGGFTSYDDNATRAQLERWVHEWRIPRVKIKIGESWGSHERRDLDRIALARTVIGPDTELYVDANGGYRRKQAIRMAHAMAGHDVTWFEEPVSSDDLAGLREVRDQVSADVTAGEYGYDLAYFHRMLAADAVDCLQIDVTRCGGITDWLRAAAVAAAHNVDVSGHCAPNLHAHVATAVANLRHLEYFHDHHRIEQMFFDGALSPQGGVLRPDQQRPGFGLEFKQRDADRYRMREGHHHHHH", "soluble on expression in E. coli": "soluble"}
{"sequence": "MSLTQPFQLPHFYMPYPARLNPHLDEARAHSTRWARGMGMLEGSGIWEQSDLDAHDYGLLCAYTHPDCDGPALSLITDWYVWVFFFDDHFLETFKRTQDREGGKAYLDRLPLFMPLDLSAPVPEPENPVEAGLADLWARTVPAMSADWRKRFAVSTEHLLNESLWELSNINEGRIANPVEYIEMRRKVGGAPWSAGLVEYATAEVPAAVAGSRPLRVLMETFSDGVHLRNDLFSYQREVEEEGELSNGVLVLETFFGCTTQEAAETVNDILTSRLHQFEHTALTEVPALALEKGLTPPEVAAVAAYARGLQDWQSGGHEWHLRSSRYMNEEGHHHHHH", "soluble on expression in E. coli": "soluble"}
{"sequence": "MSLTSTLLRGRTLSFVRWPETIDDHSAWRYEEDGGLLISDGRIIASGAYHDVEKQAGEGAKKIDHRPHLLLPGFIDTHVHFPQMQVIASYGAELLDWLNTYTFPEETKFANAQHGRRIARLFLDEMVRHGTTTVAAYCSVHKASAEAFFAESHDRNMLNIAGKVMMDRNAPDGVLDTPQSGYDDTKALIKEWHGKGRQHYAITPRFAITSSPEQMEMAGALCREHPGLHMQTHLSENHAEIAFTQQLYPRSRDYTDVYEHYGLLGKNSLFGHCIHLSEREADALSQSGSVAVFCPTSNLFLGSGLFDYQRFRRRDKPLRIAAATDVGGGTNYSMLRTMDEGYKVIALNGEKLNPFQSFWQITRGNAEALSVADKIGTLDQGTDADIVVLDARATPAMRLRMETAQTLAQELFLLQTLGDDRAVREVYVAGRAAKSDMANEGHHHHHH", "soluble on expression in E. coli": "soluble"}
{"sequence": "MSLTSVVFLNPGNSTETFWVSYSQFMQAAARDLGLDLRILYAERDPQNTLQQARELFQGRDKPDYLMLVNEQYVAPQILRLSQGSGIKLFIVNSPLTLDQRELIGQSRQNYSDWIGSMVGDDEEAGYRMLKELLHKLGPVPAGHGIELLAFSGLKVTPAAQLRERGLRRALAEHPQVHLRQLVYGEWNRERAYRQAQQLLKRYPKTQLVWSANDEMALGAMQAARELGRKPGTDLLFSGVNSSPEALQALIDGKLSVLEAGHFTLGGWALVALHDDALGLDARRLGGPDWQLSLFQALTPAQARQLLRLGDQVGTRVDFRGLSAQGKPDSYRYPFGLQLLLREGHHHHHH", "soluble on expression in E. coli": "soluble"}
{"sequence": "MSLTTLNIGLILPDVLGTYGDDGNALVLRQRARMRGINAEIQRVTLDDAVPSTLDLYCLGGGEDTAQILATEHLTKDGGLQTAAAAGRPIFAVCAGLQVLGDSFRAAGRVIDGLGLIDATTVSLQKRAIGEVETTPTRAGFTAELTERLTGFENHMGATLLGPDAEPLGRVVRGEGNTDVWAASENTDDQRQQFAEGAVQGSIIATYMHGPALARNPQLADLMLAKAMGVALKDLEPLDIDVIDRLRAERLAEGHHHHHH", "soluble on expression in E. coli": "soluble"}
